Numbering of substitutions follows the chain as printed. Numbers in names are those of the source.

Assay in all cases: BLI; Octet RED96; client biotinylated and loaded on streptavidin sensors; Spy or Spy variant in solution at 0.25, 0.5, 1, 1.5 and 2 μM; 40 mM HEPES, 150 mM NaCl, pH 7.5; Kd calculated as koff/kon
Details in all cases: both partners purified

For one experiment, the target named is T1, Spy D26E (UniProt P77754 24-161, D26E).
T1 construct: source: E. coli BL21 (DE3), purified (Ni-NTA, cation exchange, SEC); not shown: His6, N-terminal, cleaved; SUMO, N-terminal, cleaved
T1 sequence (looked up): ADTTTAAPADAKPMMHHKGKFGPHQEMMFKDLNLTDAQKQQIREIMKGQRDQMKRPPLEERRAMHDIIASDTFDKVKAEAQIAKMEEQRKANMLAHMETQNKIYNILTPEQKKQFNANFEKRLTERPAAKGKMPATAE

The next experiment addresses T2, Spy D26K (UniProt P77754 24-161, D26K).
T2 construct: source: E. coli BL21 (DE3), purified (Ni-NTA, cation exchange, SEC); not shown: His6, N-terminal, cleaved; SUMO, N-terminal, cleaved
T2 sequence (looked up): T1 sequence (looked up) with E26K

Another experiment concerns the target T3, Spy D26R (UniProt P77754 24-161, D26R).
T3 construct: source: E. coli BL21 (DE3), purified (Ni-NTA, cation exchange, SEC); not shown: His6, N-terminal, cleaved; SUMO, N-terminal, cleaved
T3 sequence (looked up): T1 sequence (looked up) with E26R

For a further experiment, the target named is T4, Spy_(21-127) (UniProt P77754 44-150).
T4 construct: Spy chaperone, residues 21-127; source: E. coli BL21 (DE3), purified (Ni-NTA, cation exchange, SEC); not shown: His6, N-terminal, cleaved; SUMO, N-terminal, cleaved
T4 sequence (looked up): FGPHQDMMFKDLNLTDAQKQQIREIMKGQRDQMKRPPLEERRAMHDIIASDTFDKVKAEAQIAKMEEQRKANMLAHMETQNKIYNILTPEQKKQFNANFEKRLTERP
The method in brief:
(§1)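 Association was recorded with an Octet RED96 as streptavidin sensors carrying client proteins, biotinylated with EZ-link NHS-biotin at a 1:1 molar ratio, sat in 40 mM HEPES, 150 mM NaCl, pH 7.5 with 0.25 to 2 μM of the analyte protein (0.25, 0.5, 1, 1.5 and 2 μM). Dissociation followed after transfer to analyte-free buffer. Both wavelength-shift phases were fitted in SigmaPlot 12.0 to obtain koff and the observed association rate, whose dependence on analyte concentration yielded kon, with Kd defined as koff divided by kon.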

The target in another experiment is T5, Spy_(21-124) (UniProt P77754 44-147).
T5 construct: source: E. coli BL21 (DE3), purified (Ni-NTA, cation exchange, SEC); not shown: His6, N-terminal, cleaved; SUMO, N-terminal, cleaved
T5 sequence (looked up): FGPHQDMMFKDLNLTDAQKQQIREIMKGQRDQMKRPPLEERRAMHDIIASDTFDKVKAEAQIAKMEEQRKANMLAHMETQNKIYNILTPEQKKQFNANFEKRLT
The method in brief: as §1

Another experiment has as its target T6, Spy_(24-130) (UniProt P77754 47-153).
T6 construct: Spy chaperone, residues 24-130; source: E. coli BL21 (DE3), purified (Ni-NTA, cation exchange, SEC); not shown: His6, N-terminal, cleaved; SUMO, N-terminal, cleaved
T6 sequence (looked up): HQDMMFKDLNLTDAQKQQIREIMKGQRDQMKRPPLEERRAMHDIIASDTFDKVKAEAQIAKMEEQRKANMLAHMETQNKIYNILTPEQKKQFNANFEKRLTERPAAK
The method in brief: as §1

In a further experiment the target is T7, Spy_(24-127) (UniProt P77754 47-150).
T7 construct: Spy chaperone, residues 24-127; source: E. coli BL21 (DE3), purified (Ni-NTA, cation exchange, SEC); not shown: His6, N-terminal, cleaved; SUMO, N-terminal, cleaved
T7 sequence (looked up): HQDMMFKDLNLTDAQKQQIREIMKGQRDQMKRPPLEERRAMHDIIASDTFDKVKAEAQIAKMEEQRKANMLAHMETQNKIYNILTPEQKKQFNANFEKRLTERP
The gist of the method: as §1

A further experiment addresses T8, Spy_(27-130) (UniProt P77754 50-153).
T8 construct: Spy chaperone, residues 27-130; source: E. coli BL21 (DE3), purified (Ni-NTA, cation exchange, SEC); not shown: His6, N-terminal, cleaved; SUMO, N-terminal, cleaved
T8 sequence (looked up): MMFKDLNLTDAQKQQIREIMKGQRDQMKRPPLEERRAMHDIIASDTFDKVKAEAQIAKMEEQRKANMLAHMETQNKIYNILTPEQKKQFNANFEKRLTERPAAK
The method in brief:
as §1

B1: Im7 H40W L53A I54A (natural protein)
chain: MELKNSISDYTEAEFVQLLKEIEKENVAATDDVLDVLLEWFVKITEHPDGTDAAYYPSDNRDDSPEGIVKEIKEWRAANGKPGFKQG
modifications: biotin (EZ-link NHS-biotin, 1:1 molar ratio of biotin to protein)
notes: Im7 (colicin E7 immunity protein) with H40W L53A I54A; Spy was made with an N-terminal His6-SUMO tag that was cleaved; also called Im7AAW; partially folded client; source: purified by a similar procedure to Spy
Usually kon stands for the rate constant with which the complex forms. For B1, the kon with Spy D26E is 306000 M⁻¹ s⁻¹; with Spy D26K it was 317000 M⁻¹ s⁻¹; with Spy D26R it was 287000 M⁻¹ s⁻¹; with Spy_(21-127) it was 258000 M⁻¹ s⁻¹; with Spy_(21-124), 267000 M⁻¹ s⁻¹; with Spy_(24-130), 210000 M⁻¹ s⁻¹. Moreover, the results for the on-rate constant (kon) with Spy_(24-127) and with Spy_(27-130) were 227000 M⁻¹ s⁻¹ and 313000 M⁻¹ s⁻¹, respectively.
